Source: article PMC2192576 (1996)

T1: influenza virus (A/PR/8/34) HA (hemagglutinin) peptide on HLA-DRA*01:01 / HLA-DRB1*07:01 (human)
T1 peptide: PKYVKQNTLKLAT

T2: influenza virus (A/PR/8/34) HA (hemagglutinin) peptide on HLA-DRA*01:01 / HLA-DRB1*04:01 (human)
T2 peptide: PKYVKQNTLKLAT


How the values were obtained:
[1] = target: T1, influenza virus (A/PR/8/34) HA …; assay: cytokine release
[2] = target: T2, influenza virus (A/PR/8/34) HA …; assay: cytokine release

Row | Binder | binding result [1] | binding result [2]
1 | JS515.11 TCR (TCR, V domains shown) Valpha: QSVTQLGSHVSVSEGALVLLRCNYSSSVPPYLFWYVQYPNQGLQLLLKYTTGATLVKGINGFEAEFKKSETSFHLTKPSAHMSDAAEYFCAVSEGGGSEKLVFGKGTKLTVNP Vbeta: DVKVTQSSRYLVKRTGEKVFLECVQDMDHENMFWYRQDPGLGLRLIYFSYDVEMKEKGDIPEGYSVSREKKERFSLILESASTNQTSMYLCASSPGTSGTTYEQYFGPGTRLTVT | recognises | recognises
2 | JS515.11 TCR with Thr-51 substituted with Ser in CDR2 of the alpha chain (TCR, V domains shown) Valpha: QSVTQLGSHVSVSEGALVLLRCNYSSSVPPYLFWYVQYPNQGLQLLLKYTSGATLVKGINGFEAEFKKSETSFHLTKPSAHMSDAAEYFCAVSEGGGSEKLVFGKGTKLTVNP Vbeta: DVKVTQSSRYLVKRTGEKVFLECVQDMDHENMFWYRQDPGLGLRLIYFSYDVEMKEKGDIPEGYSVSREKKERFSLILESASTNQTSMYLCASSPGTSGTTYEQYFGPGTRLTVT | recognises | 
3 | JS515.11 TCR with Gly-52 substituted with Ala in CDR2 of the alpha chain (TCR, V domains shown) Valpha: QSVTQLGSHVSVSEGALVLLRCNYSSSVPPYLFWYVQYPNQGLQLLLKYTTAATLVKGINGFEAEFKKSETSFHLTKPSAHMSDAAEYFCAVSEGGGSEKLVFGKGTKLTVNP Vbeta: DVKVTQSSRYLVKRTGEKVFLECVQDMDHENMFWYRQDPGLGLRLIYFSYDVEMKEKGDIPEGYSVSREKKERFSLILESASTNQTSMYLCASSPGTSGTTYEQYFGPGTRLTVT | recognises | 
4 | hybrid TCR: 3BC6.6 TCRA with JS515.11 TCRB (TCR, V domains shown) Valpha: QSVTQLGSHVSVSEGALVLLRCNYSSSVPPYLFWYVQYPNQGLQLLLKYTSAATLVKGINGFEAEFKKSETSFHLTKPSAHMSDAAEYFCAVSEDTSYDKVIFGPGTSLSVIP Vbeta: DVKVTQSSRYLVKRTGEKVFLECVQDMDHENMFWYRQDPGLGLRLIYFSYDVEMKEKGDIPEGYSVSREKKERFSLILESASTNQTSMYLCASSPGTSGTTYEQYFGPGTRLTVT | no recognition | no recognition
5 | hybrid TCR: JS515.11 TCRA with 3BC6.6 TCRB (TCR, V domains shown) Valpha: QSVTQLGSHVSVSEGALVLLRCNYSSSVPPYLFWYVQYPNQGLQLLLKYTTGATLVKGINGFEAEFKKSETSFHLTKPSAHMSDAAEYFCAVSEGGGSEKLVFGKGTKLTVNP Vbeta: DVKVTQSSRYLVKRTGEKVFLECVQDMDHENMFWYRQDPGLGLRLIYFSYDVEMKEKGDIPEGYSVSREKKERFSLILESASTNQTSMYLCASSLTTSGYTFGSGTRLTVV | no recognition | no recognition
6 | 3BC6.6 TCR (TCR, V domains shown) Valpha: QSVTQLGSHVSVSEGALVLLRCNYSSSVPPYLFWYVQYPNQGLQLLLKYTSAATLVKGINGFEAEFKKSETSFHLTKPSAHMSDAAEYFCAVSEDTSYDKVIFGPGTSLSVIP Vbeta: DVKVTQSSRYLVKRTGEKVFLECVQDMDHENMFWYRQDPGLGLRLIYFSYDVEMKEKGDIPEGYSVSREKKERFSLILESASTNQTSMYLCASSLTTSGYTFGSGTRLTVV | no recognition | recognises
